Patent publication US20100183642A1 (CENTRE NATIONAL DE LA RECHERCHE SCIENTIFIQUE, published 2010)
Non-standard residues stand in square brackets, D forms with d. No end group written: not given here. *: point of attachment. Biotin = O=C1N[C@H]2[C@H](CS[C@H]2CCCCC(=O)*)N1; Ahx = NCCCCCC(=O)O

Key:
[1] = biological target: T1, recombinant CD40 associated with the constant part of the heavy chain of mouse IgG2a (human CD40 muIg fusion … (human; mouse, UniProt P25942 21-193, limits assumed); test: SPR (BIAcore 3000): CD40 muIg captured by anti-mouse Ig, ligand injected as analyte
T1 construct: Bought reagent; Captured on the chip by rabbit antibodies against the constant part of mouse immunoglobulins; not shown: constant part of the heavy chain of mouse IgG2a
T1 sequence (P25942 21-193 limits assumed): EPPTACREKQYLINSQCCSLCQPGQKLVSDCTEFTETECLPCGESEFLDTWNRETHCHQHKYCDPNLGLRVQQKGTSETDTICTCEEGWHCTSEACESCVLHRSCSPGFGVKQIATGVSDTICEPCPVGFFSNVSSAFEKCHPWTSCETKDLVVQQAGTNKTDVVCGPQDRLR

[2] = biological target: membranous CD40 on Burkitt's lymphoma cells (BL41, Raji) (UniProt P25942); test: flow cytometry on BL41 cells, 2.5 µM biotinylated L41 developed with streptavidin-FITC; the control panel without streptavidin-FITC (BL41 L41 2.5 -SAvFITC) prints 1.3% for the same quadrant
Chain of membranous CD40 on Burkitt's lymphoma cells (BL41, Raji) (P25942 21-277 limits assumed): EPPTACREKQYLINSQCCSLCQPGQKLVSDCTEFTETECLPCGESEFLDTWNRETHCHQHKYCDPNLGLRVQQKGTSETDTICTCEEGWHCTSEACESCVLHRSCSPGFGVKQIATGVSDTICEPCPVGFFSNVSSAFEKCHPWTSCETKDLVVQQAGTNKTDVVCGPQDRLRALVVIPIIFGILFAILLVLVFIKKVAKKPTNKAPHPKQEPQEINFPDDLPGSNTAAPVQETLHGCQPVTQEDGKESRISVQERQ

[3] = biological target: recombinant CD40 associated with the constant part of the heavy chain of mouse IgG2a (human CD40 muIg fusion protein, ANCELL Corporation) (human; mouse) (UniProt P25942); test: SPR (BIAcore 3000): CD40 muIg captured by anti-mouse Ig, ligand injected as analyte
Chain of recombinant CD40 associated with the constant part of the heavy chain of mouse IgG2a (human CD40 muIg fusion protein, ANCELL Corporation) (human; mouse) (P25942 21-193 limits assumed): as the sequence (P25942 21-193 limits assumed) above

[4] = biological target: membranous CD40 on Burkitt's lymphoma cells (BL41, Raji) (UniProt P25942); test: flow cytometry on BL41 cells, 2.5 µM biotinylated L41 developed with streptavidin-FITC; the control panel without streptavidin-FITC (BL41 L41 2.5 -SAvFITC) prints 4.3% for the same quadrant

Row | Kd [1] [nM] | % of cells in the upper right quadrant (FL1-H above the line, high FSC-H) [2] [%] | Kd [3] [nM] | % of cells in the upper left quadrant (FL1-H above the line, low FSC-H) [4] [%] | Binder
1 | 310 | – | – | – | L40 ligand, compound of formula (III-e) (also: chain 2 cyclised head to tail, three chain-1 arms, each Ahx carboxyl amide-linked to one Lys side-chain amine of cyclic chain 2 (C3-symmetric trimer), head-to-tail to a chain's N/C-terminus, Branched synthetic trimer with C3 symmetry: three pentapeptide arms on a cyclic hexapeptide) peptide: H-K[dP]YY[Ahx] K[dA]K[dA]K[dA]
2 | – | 23.5 | 28 | 10.2 | L41 ligand (compound A), biotinylated (also: three KGYY-Ahx arms, each Ahx amide-linked to side-chain amines of Lys2, Lys4, Lys6 of the cyclic chain, head-to-tail to a chain's N/C-terminus) peptide: KGYY[Ahx] [dA]K[dK](Biotin)K[dA]K
